Patent US20100234294A1 (INSTITUT NATIONAL DE LA SANTE ET DE LA RECHERCHE MEDICALE …, published 2010)

How the values were obtained:
Assay in all cases: co-expression in COS cells
[1] = target: T1, FcERIγ (UniProt P30273 19-86)
T1 sequence (looked up): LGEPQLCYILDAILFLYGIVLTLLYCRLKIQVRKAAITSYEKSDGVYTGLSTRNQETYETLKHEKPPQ

[2] = target: DAP12 (UniProt O43914 22-113)
[3] = target: T2, ζ (UniProt P20963 22-164)
T2 construct: also called CD3ζ

[4] = target: T3, DAP10 (UniProt Q9UBK5 19-93)
T3 sequence (looked up): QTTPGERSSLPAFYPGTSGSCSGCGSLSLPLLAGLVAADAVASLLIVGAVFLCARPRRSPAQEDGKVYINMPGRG

Measured: binding result

T2 sequence (P20963 22-164 limits assumed): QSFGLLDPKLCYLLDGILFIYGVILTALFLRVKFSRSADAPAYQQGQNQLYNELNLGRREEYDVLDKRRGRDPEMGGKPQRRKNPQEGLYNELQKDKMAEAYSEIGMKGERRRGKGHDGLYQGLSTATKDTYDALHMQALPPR
Sequence of DAP12 (O43914 22-113 limits assumed): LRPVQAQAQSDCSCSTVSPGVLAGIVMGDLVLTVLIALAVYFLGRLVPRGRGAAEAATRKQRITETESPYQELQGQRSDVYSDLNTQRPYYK

B1: CD160-TM, Flag-tagged, expressed by transfected cells (receptor)
chain: GCINITSSASQEGTRLNLICTVWHKKEEAEGFVVFLCKDRSGDCSPETSLKQLRLKRDPGIDGVGEISSQLMFTISQVTPLHSGTYQCCARSQKSGIRLQGHFFSILFTETGNYTVTGLKQRQHLEFSHNEGTLSSGFLQEKVWVMLVTSLVALQGMSKRAVSTPSNEGAIIFLPPWLFSRRRRLERMSRGREKCYSSPGYPQESSNQFH
notes: Expressed in Jurkat cells from pEF6; Also used here for the co-expression in COS cells, where the construct is not described; also called CD160-TM transfectants; CD160-TM-transfected cells; not shown: Flag tag coded by the reverse oligonucleotide (C-terminal)
no binding: [1] | [2] | [3] | [4]
